The test addresses T1, recombinant human RANK-hFc fusion protein (human, UniProt Q9Y6Q6 30-212, limits assumed).
T1 construct: also called hRANK; not shown: human Fc (hFc)
T1 sequence (looked up): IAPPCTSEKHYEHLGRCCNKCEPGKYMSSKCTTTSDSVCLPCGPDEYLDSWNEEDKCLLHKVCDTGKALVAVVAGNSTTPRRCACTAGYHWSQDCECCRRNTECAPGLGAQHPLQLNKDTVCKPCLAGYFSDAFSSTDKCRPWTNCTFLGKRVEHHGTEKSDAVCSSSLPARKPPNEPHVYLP
The test can be described thus: ELISA, human RANKL coated at 10 µg/ml, serial dilutions of human RANK-hFc, anti-hFc-HRP detection. The procedure: To test whether the antibodies generated in mice have neutralizing activity, in vitro binding assays for both mouse and human RANKL and their cognate receptors mouse RANK and human RANK were established. ELISA plates were therefore coated with 10 μg/ml of either mouse or human RANKL protein and incubated with serial dilutions of a recombinant mouse RANK-hFc fusion protein or a recombinant human RANK-hFc fusion protein, respectively. Bound protein was detected with a horse raddish peroxidase conjugated anti-hFc antibody. […] Sera of mice immunized with mRANKL(155-174) coupled to Qβcapsid were then tested for their ability to inhibit the binding of mouse and human RANKL protein to their respective receptors. ELISA plates were therefore coated with either mouse or human RANKL protein at a concentration of 10 μg/ml, and co-incubated with serial dilutions of a pool of mouse sera from day 35 and 0.35 nM mouse or human RANK-hFc fusion protein, respectively. Binding of receptor to immobilized RANKL protein was detected with horse raddish peroxidase conjugated anti-hFc antibody.

B1: human RANKL protein (ligand, UniProt O14788 140-317, looked up)
chain: IRAEKAMVDGSWLDLAKRSKLEAQPFAHLTINATDIPSGSHKVSLSSWYHDRGWAKISNMTFSNGKLIVNQDGFYYLYANICFRHHETSGDLATEYLQLMVYVTKTSIKIPSSHTLMKGGSTKYWSGNSEFHFYSINVGGFFKLRSGEEISIEVSNPSLLDPDQDATYFGAFKVRDID
notes: also called hRANKL
Consider B1, for which the binding result is given as “binds”.

Source of the values: patent publication US20070248617A1 (published 2007).
